Substrate: N[C@@H](CCC(=O)N[C@H](CSc1ccc([N+](=O)[O-])cc1[N+](=O)[O-])C(=O)NCC(=O)O)C(=O)O
Test: TP_TRANSPORTER: uptake in bile canalicular membrane vesicles from ddY mouse
Format: functional, cell membranes, Bile canalicular membrane vesicle

B1: ATP-binding cassette sub-family C member 2 (Mus musculus) (protein)
chain: MDEFCNSTFWNLSLLKSPEADLPLCFEQTVLVWIPLGFLWLLAPWQLYRIYRSRTKRFAITKFYLAKQVFVVCLLILAAIDLSLALTEDTGQATIPPVKYTNPILYLCTWLLVLVIQHCRQCCIQKNSWFLSMFWILSLLCGIFQFQTLIRALLQDSKSNMTYSCLFFVSYGFQIVILILSAFSESSDSTHAPSATASFLSSVTFSWYDSTVLKGYKHPLTIEDVWDIEENLKAKSLTSKFKTIMTKDLQKARQALQRRLKKSQQSPEGTSHGLTKKQSQSQDVLVLEDSKKKKKKSEATKDFPKSWLVKALFKTFYVVILKSFILKLAHDILLFLNPQLLKFLIGFVKDPDSYPWVGYIYAILMFSVTLIQSFFLQCYFQFCFVLGMTVRTTIIASVYKKALTLSNLARRQYTIGETVNLMSVDSQKLMDVTNYIHLLWSSVLQIALSIFFLWRELGPSILAGVGLMVLLVPVNGVLATKIRKIQVQNMKNKDKRLKIMNEILSGIKILKYFAWEPSFKEQVNSIRKKELRNLLRFSQLQTILIFILHLTPTLVSVITFSVYVLVDSQNVLNAEKAFTSITLFNILRFPLAMLPMVISSVIQASVSVDRLEQYLGSDDLDLSAIRHVCHFDKAVQFSEASFTWDRDLEATIQDVNLDIKPGQLVAVVGTVGSGKSSLISAMLGEMENVHGHITIKGSIAYVPQQAWIQNGTIKDNILFGSEYDEKKYQRVIEACALLPDLEMLPGGDMAEIGEKGINLSGGQKHRVSLARATYQDADIYILDDPLSAVDTHVGKHIFNKVVGPNGLLSGKTRILVTHGIHFLPQVDEIVVLGKGTILEKGSYSDLMDKKGVFAKNWKTFMKHSGPEGEATVDNDSEEEDGDCGLIPTVEEIPDDAASLTMRRENSLRRTLSRSSRSGSRRGKSLKSSLKIKSVNALNKKEEVVKGQKLIKKEFVETGKVKFSIYLKYLQAVGWWSLLFIVIFYVLNYVAFIGTNLWLSAWTSDSEKQNGTDNSPSQRDMRIGVFGALGIAQGIFLLSSSLWSIYACRNASKTLHRQLLTNILRAPMSFFDTTPTGRIVNRFAGDISTVDDTLPQTLRSWLLCFFGIVSTLVMICMATPIFIIIIIPLSILYVSVQVFYVATSRQLRRLDSVTKSPIYSHFSETVSGLPVIRAFEHQQRFLANSEKQIDTNQKCVFSWITSNRWLAIRLELVGNLIVFCSALLLVIYKNSLTGDTVGFVLSNALNITQTLNWLVRMTSEVETNIVAVERINEYINVDNEAPWVTDKKPPADWPKKGEIQFNNYQVRYRPELDLVLKGITCNIKSTEKVGVVGRTGAGKSSLTNCLFRILESAGGQIIIDGIDIASIGLHDLRGRLTIIPQDPILFSGNLRMNLDPFNKYSDEEIWRALELAHLKSFVAGLQLGLLHEVTEGGDNLSIGQRQLLCLGRAVLRKSKILVLDEATAAVDLETDSLIQTTIRNEFSQCTVITIAHRLHTIMDSDKIMVLDSGKIVEYGSPEELLSNMGPFYLMAKEAGIESVNHTEL
With B1 as the protein, how does the Km read?
Its Km is 25.5 µM.
